The results in this text go back to patent publication US20120172295A1 (INDIANA UNIVERSITY RESEARCH AND TECHNOLOGY, published 2012).

What all share (assay): cell-based or functional assay
For assay [1], the target named is T1, glucagon receptor (UniProt P47871 26-477, limits assumed).
The target in assay [2] is T2, GLP-1 receptor (UniProt P43220 24-463, limits assumed).
Assay [3] has as its target T3, GIP receptor (UniProt P48546 22-466).
T3 sequence (looked up): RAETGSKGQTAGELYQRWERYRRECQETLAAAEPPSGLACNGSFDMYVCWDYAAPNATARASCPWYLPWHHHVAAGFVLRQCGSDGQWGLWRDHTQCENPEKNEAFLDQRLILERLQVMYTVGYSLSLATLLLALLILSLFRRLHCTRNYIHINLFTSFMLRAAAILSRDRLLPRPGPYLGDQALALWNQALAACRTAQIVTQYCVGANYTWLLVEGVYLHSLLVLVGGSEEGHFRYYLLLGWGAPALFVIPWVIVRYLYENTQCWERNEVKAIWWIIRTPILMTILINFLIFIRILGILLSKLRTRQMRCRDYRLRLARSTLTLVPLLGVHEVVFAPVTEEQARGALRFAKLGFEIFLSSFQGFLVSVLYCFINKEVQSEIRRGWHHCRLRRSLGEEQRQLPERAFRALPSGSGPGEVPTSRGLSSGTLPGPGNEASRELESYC

For assay [4], the target named is T1, glucagon receptor. The source holds these as a separate data set.
Assay [5] concerns the target T2, GLP-1 receptor. This is another data set of the same source.
Assay [6] deals with T3, GIP receptor. This is another data set of the same source.
For assay [7], the target named is T1, glucagon receptor. The source holds these as a separate data set.
Assay [8] deals with T2, GLP-1 receptor. This is another data set of the same source.
Assay [9] has as its target T3, GIP receptor. This is another data set of the same source.
Assay [10] concerns the target T1, glucagon receptor. This is another data set of the same source.
Assay [11] concerns the target T2, GLP-1 receptor. This is another data set of the same source.
Assay [12] addresses T1, glucagon receptor. The source holds these as a separate data set.
Assay [13] deals with T2, GLP-1 receptor. The source holds these as a separate data set.
The target in assay [14] is T1, glucagon receptor. This is another data set of the same source.
Assay [15] deals with T2, GLP-1 receptor. The source holds these as a separate data set.
Assay [16] addresses T1, glucagon receptor. The source holds these as a separate data set.
Assay [17] has as its target T2, GLP-1 receptor. The source holds these as a separate data set.
In assay [18] the target is T1, glucagon receptor. The source holds these as a separate data set.
For assay [19], the target named is T2, GLP-1 receptor. This is another data set of the same source.
Assay [20] concerns the target T1, glucagon receptor. The source holds these as a separate data set.
Assay [21] has as its target T2, GLP-1 receptor. The source holds these as a separate data set.
Assay [22] concerns the target T1, glucagon receptor. This is another data set of the same source.
In assay [23] the target is T2, GLP-1 receptor. The source holds these as a separate data set.
Assay [24] deals with T1, glucagon receptor. The source holds these as a separate data set.
The target in assay [25] is T2, GLP-1 receptor. The source holds these as a separate data set.
Assay [26] addresses T1, glucagon receptor. This is another data set of the same source.
Assay [27] deals with T2, GLP-1 receptor. The source holds these as a separate data set.
Assay [28] addresses T1, glucagon receptor. This is another data set of the same source.
Assay [29] addresses T2, GLP-1 receptor. This is another data set of the same source.
In assay [30] the target is T1, glucagon receptor. The source holds these as a separate data set.

Where two headings read alike, the source gives them in different places. Positions of bridges follow the written chain, without caps; N, C: chain ends. Non-standard residues stand in square brackets, D forms with d. No end group written: not given here. *: point of attachment. Palmitoyl = CCCCCCCCCCCCCCCC(=O)*; Aib = CC(C)(N)C(=O)O

T1 sequence (P47871 26-477 limits assumed): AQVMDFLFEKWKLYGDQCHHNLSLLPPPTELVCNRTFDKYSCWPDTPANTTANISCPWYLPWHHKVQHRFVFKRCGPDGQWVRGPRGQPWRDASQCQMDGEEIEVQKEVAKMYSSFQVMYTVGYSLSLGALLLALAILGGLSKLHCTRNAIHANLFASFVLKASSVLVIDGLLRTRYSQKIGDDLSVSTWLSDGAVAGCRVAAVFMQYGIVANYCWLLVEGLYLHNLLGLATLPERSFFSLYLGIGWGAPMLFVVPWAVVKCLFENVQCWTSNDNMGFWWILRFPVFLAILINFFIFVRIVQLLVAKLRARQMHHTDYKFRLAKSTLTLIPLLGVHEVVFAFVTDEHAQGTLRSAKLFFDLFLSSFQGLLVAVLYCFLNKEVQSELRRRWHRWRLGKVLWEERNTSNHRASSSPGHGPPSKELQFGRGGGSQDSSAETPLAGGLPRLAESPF

In the case of HXQGTFTSDYSKYLDEQAAKEFIAWLMNGGPSSGAPPPSK (acylated Lys at 40) [mt-364], the “% Relative activity” value is 350% with glucagon receptor [1]; 355% in the assay with GLP-1 receptor [2]; 15.7% with GIP receptor [3]; 350% in the assay with glucagon receptor [4]; 355% with GLP-1 receptor [5]; 15.7% in the assay with GIP receptor [6]. In addition, the “% Relative activity” value with glucagon receptor [7] was determined as 350%; with GLP-1 receptor [8], 355%; with GIP receptor [9], 15.7%. For the same molecule, the EC50 in the assay with glucagon receptor [1] is 0.0183 nM; in the assay with GLP-1 receptor [2] it was 7 pM.
With HSQGTFTSDYSRYLDSRRAQDFVQWLMNK [Glucagon R12 K29], the “cAMP induction EC50” value came to 0.81 nM with glucagon receptor [10] and 0.41 nM with GLP-1 receptor [11].
In the case of HSQGTFTSDYSKYLDERRAKDFVQWLMNT-NH2 [E16 K20-glucagon-NH2], the “Percent Potency Relative to Native Ligand” value came to 130% with glucagon receptor [12], 41.5% in the assay with GLP-1 receptor [13], 130% with glucagon receptor [14] and 41.5% with GLP-1 receptor [15]. The EC50 stood at 0.18 nM with glucagon receptor [16]; 0.21 nM with GLP-1 receptor [17]; 0.18 nM with glucagon receptor [18]; 0.21 nM in the assay with GLP-1 receptor [19]; 0.203 nM in the assay with glucagon receptor [20]; 0.188 nM with GLP-1 receptor [21].
With Y[Aib]QGTFISDYSIYLDKQAA[Aib]EFVNWLLAGGPSSGAPPPSK(Palmitoyl)-NH2 [mt-358], the “% Relative activity” value with glucagon receptor [4] is 710%; in the assay with GLP-1 receptor [5], 11.9%; with GIP receptor [6] it was 314%.

B1: AIB2, AIB16, K10(C16), K30 Glucagon Amide (peptide)
peptide: H[Aib]QGTFTSDK(Palmitoyl)SKYLD[Aib]RRAQDFVCWLMNTK-NH2
modifications: N-terminus assumed
SMILES: CCCCCCCCCCCCCCCC(=O)NCCCC[C@H](NC(=O)[C@H](CC(=O)O)NC(=O)[C@H](CO)NC(=O)[C@@H](NC(=O)[C@H](Cc1ccccc1)NC(=O)[C@@H](NC(=O)CNC(=O)[C@H](CCC(N)=O)NC(=O)C(C)(C)NC(=O)[C@@H](N)Cc1c[nH]cn1)[C@@H](C)O)[C@@H](C)O)C(=O)N[C@@H](CO)C(=O)N[C@@H](CCCCN)C(=O)N[C@@H](Cc1ccc(O)cc1)C(=O)N[C@@H](CC(C)C)C(=O)N[C@@H](CC(=O)O)C(=O)NC(C)(C)C(=O)N[C@@H](CCCNC(=N)N)C(=O)N[C@@H](CCCNC(=N)N)C(=O)N[C@@H](C)C(=O)N[C@@H](CCC(N)=O)C(=O)N[C@@H](CC(=O)O)C(=O)N[C@@H](Cc1ccccc1)C(=O)N[C@H](C(=O)N[C@@H](CS)C(=O)N[C@@H](Cc1c[nH]c2ccccc12)C(=O)N[C@@H](CC(C)C)C(=O)N[C@@H](CCSC)C(=O)N[C@@H](CC(N)=O)C(=O)N[C@H](C(=O)N[C@@H](CCCCN)C(N)=O)[C@@H](C)O)C(C)C
In turn, B1 displayed an EC50 in the assay with glucagon receptor [22] of 0.761 nM. Further, the “EC50 (20% human plasma)” value with glucagon receptor [22] is 0.313 nM; with GLP-1 receptor [23], 0.017 nM.

B2: Glucagon (1-29a) Aib2 Aib16 (peptide)
peptide: H[Aib]QGTFTSDYSKYLD[Aib]RRAQDFVQWLMNT-NH2
modifications: N-terminus assumed
SMILES: CSCC[C@H](NC(=O)[C@H](CC(C)C)NC(=O)[C@H](Cc1c[nH]c2ccccc12)NC(=O)[C@H](CCC(N)=O)NC(=O)[C@@H](NC(=O)[C@H](Cc1ccccc1)NC(=O)[C@H](CC(=O)O)NC(=O)[C@H](CCC(N)=O)NC(=O)[C@H](C)NC(=O)[C@H](CCCNC(=N)N)NC(=O)[C@H](CCCNC(=N)N)NC(=O)C(C)(C)NC(=O)[C@H](CC(=O)O)NC(=O)[C@H](CC(C)C)NC(=O)[C@H](Cc1ccc(O)cc1)NC(=O)[C@H](CCCCN)NC(=O)[C@H](CO)NC(=O)[C@H](Cc1ccc(O)cc1)NC(=O)[C@H](CC(=O)O)NC(=O)[C@H](CO)NC(=O)[C@@H](NC(=O)[C@H](Cc1ccccc1)NC(=O)[C@@H](NC(=O)CNC(=O)[C@H](CCC(N)=O)NC(=O)C(C)(C)NC(=O)[C@@H](N)Cc1c[nH]cn1)[C@@H](C)O)[C@@H](C)O)C(C)C)C(=O)N[C@@H](CC(N)=O)C(=O)N[C@H](C(N)=O)[C@@H](C)O
B2: the EC50 with glucagon receptor [24] stood at 0.09 nM; in the assay with GLP-1 receptor [25] it was 0.1 nM.

B3: peptide of SEQ ID NO: 555 (peptide)
peptide: YSQGTFTSDYSKYLDEQAAKEFVNWLMNGGPSSGAPPPS-NH2
modifications: lactam 16-20; N-terminus assumed
SMILES: CSCC[C@H](NC(=O)[C@H](CC(C)C)NC(=O)[C@H](Cc1c[nH]c2ccccc12)NC(=O)[C@H](CC(N)=O)NC(=O)[C@@H](NC(=O)[C@H](Cc1ccccc1)NC(=O)[C@H](CCC(=O)O)NC(=O)[C@@H]1CCCCNC(=O)CC[C@H](NC(=O)[C@H](CC(=O)O)NC(=O)[C@H](CC(C)C)NC(=O)[C@H](Cc2ccc(O)cc2)NC(=O)[C@H](CCCCN)NC(=O)[C@H](CO)NC(=O)[C@H](Cc2ccc(O)cc2)NC(=O)[C@H](CC(=O)O)NC(=O)[C@H](CO)NC(=O)[C@@H](NC(=O)[C@H](Cc2ccccc2)NC(=O)[C@@H](NC(=O)CNC(=O)[C@H](CCC(N)=O)NC(=O)[C@H](CO)NC(=O)[C@@H](N)Cc2ccc(O)cc2)[C@@H](C)O)[C@@H](C)O)C(=O)N[C@@H](CCC(N)=O)C(=O)N[C@@H](C)C(=O)N[C@@H](C)C(=O)N1)C(C)C)C(=O)N[C@@H](CC(N)=O)C(=O)NCC(=O)NCC(=O)N1CCC[C@H]1C(=O)N[C@@H](CO)C(=O)N[C@@H](CO)C(=O)NCC(=O)N[C@@H](C)C(=O)N1CCC[C@H]1C(=O)N1CCC[C@H]1C(=O)N1CCC[C@H]1C(=O)N[C@@H](CO)C(N)=O
Turning to B3, the EC50 with glucagon receptor [26] is 0.044 nM; in the assay with GLP-1 receptor [27], 0.062 nM.
In the case of HSEGTFTSDYSKYLDERRAQDFVQWLMNT-NH2 [E3, E16 Gluc-NH2], the “Percent Potency Relative to Native Ligand” value with glucagon receptor [28] worked out at 1.6%; with GLP-1 receptor [29], 28.8%.
Regarding HSEGTFTSDYSKYLDEQAAKEFIC(PEG 20 kDa)WLMNT-NH2 [Peptide V], the glucagon agonism with glucagon receptor [30] is > 10 fold.
